Laboratory results taken from patent publication US20100260668A1 (published 2010).

Experiments:
[1] = molecular target: T1, DLL4 (DLL4 ECD/His tag, R&D Systems 1506-D4-050) (UniProt Q9NR61 27-529); assay: Direct bind ELISA on DLL4; DLL4 domain C-term., HC long, LC short
T1 construct: extracellular domain; not shown: His tag

[2] = molecular target: T1, DLL4 (DLL4 ECD/His tag, R&D Systems …); assay: Direct bind ELISA on DLL4; DLL4 domain N-term., HC long, LC short

Binder	EC50 [1] [nM]	EC50 [2] [nM]
DVD478 (VEGF/DLL4 DVD-Ig) (bispecific antibody, human IgG1, HC linker long, LC linker short; also called DVD478H; DVD478L) VH: EVQLVESGGGLVQPGGSLRLSCAASGFTISDYWIHWVRQAPGKGLEWVAGITPAGGYTYYADSVKGRFTISADTSKNTAYLQMNSLRAEDTAVYYCARFVFFLPYAMDYWGQGTLVTVSSASTKGPSVFPLAPEVQLVESGGGLVQPGGSLRLSCAASGFTFTDNWISWVRQAPGKGLEWVGYISPNSGFTYYADSVKGRFTISADTSKNTAYLQMNSLRAEDTAVYYCARDNFGGYFDYWGQGTLVTVSS VL: DIQMTQSPSSLSASVGDRVTITCRASQDVSTAVAWYQQKPGKAPKLLIYSASFLYSGVPSRFSGSGSGTDFTLTISSLQPEDFATYYCQQSYTTPPTFGQGTKVEIKRTVAAPDIQMTQSPSSLSASVGDRVTITCRASQDVSTAVAWYQQKPGKAPKLLIYSASFLYSGVPSRFSGSGSGTDFTLTISSLQPEDFATTYYCQQSYTGTVTFGQGTKVEIKR	2.53	–
DVD501 (DLL4/VEGF DVD-Ig) (bispecific antibody, human IgG1, HC linker long, LC linker short; also called DVD501H; DVD501L) VH: EVQLQQSGPELVKPGASVKMSCKASGYTFTSYVINWVKQKPGQGLEWIGLINPYNDGTKYNEKFKVKATLTSDKSSSTAYMELSSLTSEDSAVYYCASYYYGSRYYFDYWGQGTTLTVSSASTKGPSVFPLAPEVQLVESGGGLVQPGGSLRLSCAASGFTISDYWIHWVRQAPGKGLEWVAGITPAGGYTYYADSVKGRFTISADTSKNTAYLQMNSLRAEDTAVYYCARFVFFLPYAMDYWGQGTLVTVSS VL: DIQMTQSSSYLSVSLGGRVTITCKASDHINNWLAWYQQKPGNAPRLLISGATSLETGVPSRFSGSGSGKDYTLSITSLQTEDVATYYCQQYWSIPLTFGAGTKLELKRTVAAPDIQMTQSPSSLSASVGDRVTITCRASQDVSTAVAWYQQKPGKAPKLLIYSASFLYSGVPSRFSGSGSGTDFTLTISSLQPEDFATYYCQQSYTTPPTFGQGTKVEIKR	–	0.18

Results, then the binder that gave them:

EC50 [1] [nM]	EC50 [2] [nM]	Binder
2.48	–	DVD456 (VEGF/DLL4 DVD-Ig) (bispecific antibody, human IgG1, HC linker long, LC linker short; also called DVD456H; DVD456L) VH: EVQLVESGGGLVQPGGSLRLSCAASGFTISDYWIHWVRQAPGKGLEWVAGITPAGGYTYYADSVKGRFTISADTSKNTAYLQMNSLRAEDTAVYYCARFVFFLPYAMDYWGQGTLVTVSSASTKGPSVFPLAPQVQLVQSGAEVKKPGASVKISCKASGYSFTAYYIHWVKQAPGQGLEWIGYISSYNGATNYNQKFKGRVTFTTDTSTSTAYMELRSLRSDDTAVYYCARDYDYDVGMDYWGQGTLVTVSS VL: DIQMTQSPSSLSASVGDRVTITCRASQDVSTAVAWYQQKPGKAPKLLIYSASFLYSGVPSRFSGSGSGTDFTLTISSLQPEDFATYYCQQSYTTPPTFGQGTKVEIKRTVAAPDIVMTQSPDSLAVSLGERATISCRASESVDNYGISFMKWFQQKPGQPPKLLIYAASNQGSGVPDRFSGSGSGTDFTLTISSLQAEDVAVYYCQQSKEVPWTFGGGTKVEIKR
1.57	–	DVD526 (VEGF/DLL4 DVD-Ig) (bispecific antibody, human IgG1, HC linker long, LC linker short; also called DVD526H; DVD526L) VH: EVQLVESGGGLVQPGGSLRLSCAASGFTISDYWIHWVRQAPGKGLEWVAGITPAGGYTYYADSVKGRFTISADTSKNTAYLQMNSLRAEDTAVYYCARFVFFLPYAMDYWGQGTLVTVSSASTKGPSVFPLAPEVQLQQSGPELEKPGASVKISCKASGYSFTGYNMNWVKQSNGKSLEWIGNIDPYFGGTNYNQKFKGKATLTVDKSSSTAYMQLKSLTSEDSAVYYCARNYDYDGGCFDYWGQGTTLTVSS VL: DIQMTQSPSSLSASVGDRVTITCRASQDVSTAVAWYQQKPGKAPKLLIYSASFLYSGVPSRFSGSGSGTDFTLTISSLQPEDFATYYCQQSYTTPPTFGQGTKVEIKRTVAAPQAVVTQESALTTSPGETVTLTCRSSTGAVTTSNYANWVQEKPDHLFTGLIGGTNNRAPGVPARFSGSLIGDKAALTITGAQTEDEAIYFCALWYSNHWVFGGGTKLTVLG
